Reference: publication PMC5441903, “The E3 ligase ABI3-INTERACTING PROTEIN2 negatively regulates FUSCA3 and plays a role in cotyledon development in Arabidopsis thaliana” (Journal of Experimental Botany, 2017)
Substitutions are numbered along the chain they refer to. Blank lines part the entries; values can stand above or below the binder they belong to.

Biological target: T1, GST–FUS3 (Arabidopsis thaliana, UniProt Q9LW31 1-313)
T1 construct: FUSCA3 (FUS3), Arabidopsis thaliana, At3g26790; GST fusion of ~66 kDa, construct described in Lu et al. (2010); probably the whole FUS3; also called glutathione S-transferase (GST)–FUS3; source: recombinant, purified (glutathione resin)
T1 sequence (looked up): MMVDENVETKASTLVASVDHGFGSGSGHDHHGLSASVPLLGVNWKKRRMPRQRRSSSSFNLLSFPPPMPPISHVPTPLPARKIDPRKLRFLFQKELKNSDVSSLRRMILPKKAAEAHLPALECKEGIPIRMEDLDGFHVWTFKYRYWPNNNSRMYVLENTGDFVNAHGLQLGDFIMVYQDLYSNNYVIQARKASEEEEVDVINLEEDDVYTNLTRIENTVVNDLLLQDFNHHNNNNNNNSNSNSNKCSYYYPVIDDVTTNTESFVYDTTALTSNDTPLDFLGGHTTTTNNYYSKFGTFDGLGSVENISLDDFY
Assay: pull-down; purified GST–FUS3 as bait, purified AIP2-6×His variants as prey; glutathione resin; immunoblots with anti-His and anti-GST
Settings: both partners purified

- binding result: binds
B1: FLAG-AIP2-6×His (natural protein, Arabidopsis thaliana, UniProt Q8RXD3 1-310, looked up)
chain: MDASSSPSPSEESLKLELDDLQKQLNKKLRFEASVCSIHNLLRDHYSSSSPSLRKQFYIVVSRVATVLKTRYTATGFWVAGLSLFEEAERLVSDASEKKHLKSCVAQAKEQLSEVDNQPTESSQGYLFEGHLTVDREPPQPQWLVQQNLMSAFASIVGGESSNGPTENTIGETANLMQELINGLDMIIPDILDDGGPPRAPPASKEVVEKLPVIIFTEELLKKFGAEAECCICKENLVIGDKMQELPCKHTFHPPCLKPWLDEHNSCPICRHELPTDDQKYENWKEREKEAEEERKGAENAVRGGEYMYV
notes: tagged protein of ~40 kDa; also called AIP2-His; source: cloned into pET28, purified (Ni-NTA-agarose)

- binding result: binds
B2: AIP2^(C/S,E/G)-6×His (inactive AIP2 variant) (natural protein, Arabidopsis thaliana, UniProt Q8RXD3 1-310, looked up)
chain: B1 chain with C230S, C231S, E235G
notes: ~40 kDa; Probably the same FLAG-...-6×His construct as m5 with the three mutations; source: recombinant, purified
